Experimental findings from publication PMC9844538 (Nature chemical biology, 2022) are described below.

This data set addresses MtbGyrBAcore(Y129F) (Mycobacterium tuberculosis, UniProt P9WG45 426-675+P9WG47:2-500, Y129F;internal_change). Briefly: X-ray crystallography.

B1: singly nicked duplex with GAA triloop ends (structured_DNA)
DNA: GGCCCTACGGCTGAAAGCCGTAGGGCCCTACGGCTGAAAGCCGTAG
Regarding B1, the binding result is listed as “binds”.
